Test [1] deals with T1, human ALK on the surface of NB1 cells (human, UniProt Q9UM73 21-1620).
T1 construct: ALK of NB1 cells; also called cell surface hALK; NB1 (human)
Briefly: flow cytometry titration on NB1 cells, steady state. On the procedure:
KD was determined by flow cytometry. Titration of each antibody on NB1 cells for 2-4 hours at 4° C. was followed by incubation with a fluorescently-labeled secondary antibody. The normalized mean fluorescent intensity […] shown as “% Max binding” was plotted as a function of antibody concentration.
Flow cytometry was utilized to measure the affinity at steady state (KD) with which different ALK antibodies bind to ALK on the surface of NB1 cells (FIG. 3). Titration of each antibody on NB1 cells for 2-4 hours at 4° C. was followed by incubation with a fluorescently-labeled secondary antibody. The normalized mean fluorescent intensity (MFI) shown as “% Max binding” was plotted as a function of antibody concentration. The data were fit to a one site binding isotherm using GraphPad Prism, from which affinity values were derived.

Test [2] concerns the target mouse ALK, purified (mALK) (mouse, UniProt P97793 19-1042). Briefly: BLI (BLitz), estimated monovalent affinity, single dose kinetics. The method, then:
(§1) Kinetic measurements of the monovalent affinity of the 96 humanized ALK antibody variants (Ab351-Ab446) were collected. Affinity ranking was performed using a BLitz® System (ForteBio, Menlo Park, Calif.). Humanized anti-ALK antibodies were immobilized at 0.5 mg/mL using Protein A tips. Once baseline stability was ensured, purified ALK proteins at 70 μg/mL were added. The resulting kinetic data were fit to a single binding site equation, from which the quoted monovalent KD values were derived.
(§2) KD values for both NB1 (human) cells and Neuro2a (mouse) cells were also determined.

The target in the next test is rat ALK, purified (rALK) (rat, UniProt P97793 19-1038 (mouse entry), limits assumed). The description is as above. The method, then:
as §1, §2

Test [3] deals with human ALK, purified (hALK) (human, UniProt Q9UM73 19-1038, limits assumed). The description is as above. On the procedure: as §1, §2
Chain of human ALK, purified (hALK) (Q9UM73 other isoform, or with tags, fused parts or gaps limits assumed): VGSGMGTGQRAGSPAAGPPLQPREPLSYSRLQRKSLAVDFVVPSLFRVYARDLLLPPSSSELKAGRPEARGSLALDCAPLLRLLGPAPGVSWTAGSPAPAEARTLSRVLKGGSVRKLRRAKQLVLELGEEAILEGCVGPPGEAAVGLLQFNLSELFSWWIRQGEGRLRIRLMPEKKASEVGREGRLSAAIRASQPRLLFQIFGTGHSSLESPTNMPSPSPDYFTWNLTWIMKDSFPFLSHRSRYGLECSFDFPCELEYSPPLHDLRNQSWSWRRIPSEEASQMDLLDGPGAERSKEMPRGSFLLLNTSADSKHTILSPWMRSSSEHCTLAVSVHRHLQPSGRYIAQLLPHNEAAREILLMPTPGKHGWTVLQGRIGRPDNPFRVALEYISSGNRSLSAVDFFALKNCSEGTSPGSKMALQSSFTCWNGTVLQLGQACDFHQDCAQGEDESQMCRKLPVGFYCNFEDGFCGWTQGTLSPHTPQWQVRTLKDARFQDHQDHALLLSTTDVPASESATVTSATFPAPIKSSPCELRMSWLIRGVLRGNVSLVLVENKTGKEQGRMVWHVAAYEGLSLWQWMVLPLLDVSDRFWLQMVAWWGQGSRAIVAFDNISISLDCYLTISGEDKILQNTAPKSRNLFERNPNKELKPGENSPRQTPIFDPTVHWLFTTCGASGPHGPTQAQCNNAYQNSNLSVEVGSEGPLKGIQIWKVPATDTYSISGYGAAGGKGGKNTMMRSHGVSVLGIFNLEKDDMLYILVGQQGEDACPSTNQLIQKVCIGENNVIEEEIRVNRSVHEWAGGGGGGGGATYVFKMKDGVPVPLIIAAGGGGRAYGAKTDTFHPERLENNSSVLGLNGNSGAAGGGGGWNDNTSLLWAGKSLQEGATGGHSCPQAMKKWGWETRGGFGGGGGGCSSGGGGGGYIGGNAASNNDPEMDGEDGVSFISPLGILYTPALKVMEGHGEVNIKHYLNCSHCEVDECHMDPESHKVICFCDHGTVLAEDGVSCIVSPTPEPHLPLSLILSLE
Test [4] concerns the target T2, murine ALK (Table 18, 'mouse ALK binding') (mouse, UniProt P97793 19-1042, limits assumed).
T2 construct: either purified mouse ALK antigen coated in ELISA or endogenous ALK on Neuro-2a cells
As to the kind of experiment: ELISA on purified mouse ALK or flow cytometry on Neuro-2a cells. The method, then:
Purified mAbs were evaluated for their ability to bind murine ALK by solid-state ELISA, or flow cytometry on Neuro-2a cells that express low levels of endogenous murine ALK.
Luminescence data were plotted as a function of the log-transformed anti-ALK antibody concentration and fit to a 4-parameter non-linear regression equation.
Alternatively, Neuro-2a cells were incubated with 10-100 nM of anti-ALK antibodies, followed by a fluorescently-labeled secondary antibody. Mean fluorescence intensity (MFI) of live-gated cells treated with anti-ALK antibodies was divided by background, determined using the secondary antibody alone.
(In general: ELISA stands for enzyme-linked immunosorbent assay.)

In test [5] the target is T3, purified ALK protein (BLitz, Table 20) (Homo sapiens (Human), UniProt Q9UM73 19-1038, limits assumed).
T3 construct: also called purified ALK proteins
As to the kind of experiment: BLI (BLitz), mAb on Protein A tip, purified ALK in solution. The method, boiled down: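 Humanized anti-ALK mAbs loaded at 0.5 mg/mL on Protein A tips; after stable baseline, purified ALK protein at 70 μg/mL added. Kinetic traces fit to a single binding site model to give monovalent KD.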

Chain of mouse ALK, purified (mALK) (P97793 19-1042 limits assumed): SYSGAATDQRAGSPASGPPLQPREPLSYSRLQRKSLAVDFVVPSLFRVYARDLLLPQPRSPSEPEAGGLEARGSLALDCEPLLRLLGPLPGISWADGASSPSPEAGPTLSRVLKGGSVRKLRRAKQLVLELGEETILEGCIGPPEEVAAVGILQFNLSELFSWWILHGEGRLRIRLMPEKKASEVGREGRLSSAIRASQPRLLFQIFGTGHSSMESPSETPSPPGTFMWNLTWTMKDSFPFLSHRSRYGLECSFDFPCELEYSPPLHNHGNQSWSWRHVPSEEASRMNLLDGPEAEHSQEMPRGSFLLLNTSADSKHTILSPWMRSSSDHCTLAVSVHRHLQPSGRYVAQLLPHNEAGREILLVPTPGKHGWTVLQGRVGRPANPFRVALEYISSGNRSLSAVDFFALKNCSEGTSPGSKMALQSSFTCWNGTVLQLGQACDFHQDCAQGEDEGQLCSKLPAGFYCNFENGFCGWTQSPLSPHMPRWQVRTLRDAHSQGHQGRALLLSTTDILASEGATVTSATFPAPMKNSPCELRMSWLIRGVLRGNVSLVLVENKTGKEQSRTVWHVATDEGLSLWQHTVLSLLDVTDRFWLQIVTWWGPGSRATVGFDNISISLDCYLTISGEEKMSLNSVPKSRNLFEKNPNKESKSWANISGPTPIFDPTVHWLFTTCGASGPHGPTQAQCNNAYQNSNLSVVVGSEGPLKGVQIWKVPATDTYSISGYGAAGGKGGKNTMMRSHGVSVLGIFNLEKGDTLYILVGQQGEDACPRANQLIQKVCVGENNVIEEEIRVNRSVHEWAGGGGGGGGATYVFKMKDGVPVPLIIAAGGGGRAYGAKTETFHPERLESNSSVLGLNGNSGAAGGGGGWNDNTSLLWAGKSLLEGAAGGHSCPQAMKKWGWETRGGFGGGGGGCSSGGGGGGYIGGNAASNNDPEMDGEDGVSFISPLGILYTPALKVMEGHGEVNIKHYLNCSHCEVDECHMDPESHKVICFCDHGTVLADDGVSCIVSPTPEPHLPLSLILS
T1 sequence (Q9UM73 21-1620): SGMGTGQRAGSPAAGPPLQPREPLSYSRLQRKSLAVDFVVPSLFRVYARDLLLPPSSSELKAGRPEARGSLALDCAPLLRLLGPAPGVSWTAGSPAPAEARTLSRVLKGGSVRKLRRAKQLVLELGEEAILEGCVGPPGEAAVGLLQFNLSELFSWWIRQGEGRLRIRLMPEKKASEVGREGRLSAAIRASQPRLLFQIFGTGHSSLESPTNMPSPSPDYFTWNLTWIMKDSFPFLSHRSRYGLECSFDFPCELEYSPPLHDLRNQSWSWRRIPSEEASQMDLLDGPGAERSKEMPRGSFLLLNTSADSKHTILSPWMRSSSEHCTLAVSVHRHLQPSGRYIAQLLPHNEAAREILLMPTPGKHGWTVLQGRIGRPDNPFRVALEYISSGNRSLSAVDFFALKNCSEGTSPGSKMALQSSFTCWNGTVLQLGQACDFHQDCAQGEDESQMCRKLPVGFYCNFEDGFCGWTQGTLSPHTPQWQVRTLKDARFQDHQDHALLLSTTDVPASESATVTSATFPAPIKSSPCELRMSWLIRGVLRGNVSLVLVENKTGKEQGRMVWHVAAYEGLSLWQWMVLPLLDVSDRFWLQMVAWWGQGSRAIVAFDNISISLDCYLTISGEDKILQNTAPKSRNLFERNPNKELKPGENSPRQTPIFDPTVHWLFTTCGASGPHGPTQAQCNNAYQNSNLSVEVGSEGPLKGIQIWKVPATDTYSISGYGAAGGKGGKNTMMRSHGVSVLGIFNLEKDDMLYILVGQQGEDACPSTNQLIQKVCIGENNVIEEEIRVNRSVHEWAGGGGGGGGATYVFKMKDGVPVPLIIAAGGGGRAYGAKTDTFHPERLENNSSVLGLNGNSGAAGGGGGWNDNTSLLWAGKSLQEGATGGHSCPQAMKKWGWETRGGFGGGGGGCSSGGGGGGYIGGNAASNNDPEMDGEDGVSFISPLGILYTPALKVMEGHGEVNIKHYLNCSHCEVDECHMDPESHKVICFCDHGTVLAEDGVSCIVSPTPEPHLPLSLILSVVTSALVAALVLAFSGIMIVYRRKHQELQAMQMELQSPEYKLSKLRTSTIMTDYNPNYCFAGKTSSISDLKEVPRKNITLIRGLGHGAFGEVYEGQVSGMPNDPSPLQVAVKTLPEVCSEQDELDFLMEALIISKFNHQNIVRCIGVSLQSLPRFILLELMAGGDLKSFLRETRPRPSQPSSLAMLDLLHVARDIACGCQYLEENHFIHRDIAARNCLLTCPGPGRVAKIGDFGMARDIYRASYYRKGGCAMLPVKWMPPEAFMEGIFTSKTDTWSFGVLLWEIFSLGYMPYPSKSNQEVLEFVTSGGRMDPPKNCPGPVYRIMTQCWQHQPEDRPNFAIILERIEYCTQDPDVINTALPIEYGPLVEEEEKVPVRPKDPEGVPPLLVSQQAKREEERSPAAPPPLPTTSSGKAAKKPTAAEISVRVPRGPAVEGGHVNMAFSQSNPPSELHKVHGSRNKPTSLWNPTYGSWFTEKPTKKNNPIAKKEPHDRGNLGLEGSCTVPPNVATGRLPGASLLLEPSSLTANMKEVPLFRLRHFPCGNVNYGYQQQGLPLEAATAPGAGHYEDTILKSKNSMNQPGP
Chain of rat ALK, purified (rALK) (P97793 other isoform, or with tags, fused parts or gaps limits assumed): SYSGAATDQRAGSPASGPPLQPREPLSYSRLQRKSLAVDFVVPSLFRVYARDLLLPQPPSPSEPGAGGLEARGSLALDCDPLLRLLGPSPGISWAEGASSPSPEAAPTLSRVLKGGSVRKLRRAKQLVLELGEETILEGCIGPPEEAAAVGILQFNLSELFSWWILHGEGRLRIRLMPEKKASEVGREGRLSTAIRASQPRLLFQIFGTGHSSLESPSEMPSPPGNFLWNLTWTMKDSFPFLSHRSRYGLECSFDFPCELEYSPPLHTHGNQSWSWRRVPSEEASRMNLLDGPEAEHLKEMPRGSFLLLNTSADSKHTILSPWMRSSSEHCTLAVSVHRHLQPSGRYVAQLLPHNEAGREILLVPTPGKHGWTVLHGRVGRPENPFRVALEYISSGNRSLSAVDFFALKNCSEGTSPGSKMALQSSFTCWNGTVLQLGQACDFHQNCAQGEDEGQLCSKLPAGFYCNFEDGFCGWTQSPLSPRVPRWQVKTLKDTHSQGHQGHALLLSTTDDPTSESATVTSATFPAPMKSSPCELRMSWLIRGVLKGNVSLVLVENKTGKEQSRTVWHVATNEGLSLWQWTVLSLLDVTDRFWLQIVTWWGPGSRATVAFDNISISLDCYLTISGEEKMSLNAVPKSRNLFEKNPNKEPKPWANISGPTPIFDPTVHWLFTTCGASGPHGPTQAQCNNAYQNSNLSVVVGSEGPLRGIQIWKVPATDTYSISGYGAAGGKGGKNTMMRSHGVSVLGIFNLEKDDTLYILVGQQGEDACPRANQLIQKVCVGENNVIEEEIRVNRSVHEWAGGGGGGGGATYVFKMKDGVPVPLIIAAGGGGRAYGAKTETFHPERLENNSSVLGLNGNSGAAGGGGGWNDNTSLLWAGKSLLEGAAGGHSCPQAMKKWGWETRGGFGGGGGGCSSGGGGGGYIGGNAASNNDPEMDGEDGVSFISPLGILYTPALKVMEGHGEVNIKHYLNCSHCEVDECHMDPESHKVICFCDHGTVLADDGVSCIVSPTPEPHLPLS
T2 sequence (P97793 19-1042 limits assumed): as the sequence (P97793 19-1042 limits assumed) above

B1: Ab325 (antibody, V domains shown)
VH: QVQLQQSGAELVKPGASVKISCKASGYAFSSYWMNWVKQRPGKGLEWIGQIYPGDGDTNYNGKFKGKATLTADKSSSTAYMQLSSLTSEDSAVYFCARWYYGSYYAMDYWGQGTSVTVSS
VL: DIQMTQTTSSLSASLGDRVTISCRASQDISNYLNWYQQKPDGTVKLLIYYTSRLHSGVPSRFSGSGSGTDYSLTISNLEQEDIATYFCQQGNTLPRTFGGGTKLEIKR
notes: rodent hybridoma mAb
Turning to B1, binding in test [1] was characterised by a dissociation constant (Kd) of 0.1 nM.

B2: Ab323 (antibody, V domains shown)
VH: QVQLQQSGAELVKPGASVKISCKTSGYTFSNYWMNWVKQRPGKGLEWIGQIFPGDADANYNGKFKGKATLTADKSSSAAFMQLSSLTSEDSAVYFCARFSYDGAFAYWGQGTLVTVS
VL: DIVMTQSHKFMSTSVGDRVSITCKASQDVSTAVAWYQQKPGQSPKPLIYWASTRHTGVPDRFTGSGSGTDYTLTISSVQTEDLALYYCQQHYSTPRTFGGGTKLEIKR
notes: rodent hybridoma mAb
B2: in test [1], the Kd (commonly the constant that tells how readily two partners part at equilibrium) came to 0.08 nM.

B3: Ab327 (antibody, V domains shown)
VH: DVKLVESGEGLVKPGGSLKLSCAASGFTFSSYAMSWVRQTPEKRLEWVTYISSGGDYIYYADTVKGRFTISRDNARNTLYLQMSSLKSEDTAMYYCTRERIWLRRFFDVWGTGTTVTVSS
VL: DIVMTQSQKFMSTSVGDRVSITCKASQNVGTAVAWYQLKPGQSPKLLIYSASNRFTGVPDRFTGSGSGTDFTLTISNMQSEDLADYFCQQYSSYPLTFGSGTKLEIKR
notes: rodent hybridoma mAb
B3 came in with a Kd in test [1] of 0.4 nM.

B4: Ab326 (antibody, V domains shown)
VH: QVQLQQSGAELAKPGASVKLSCKASGYTFTSYWMHWVKQRPGQGLEWIGYIKPSSGYTKYNQKFKDKATLTADKSSSTAYMQLSSLTYEDSAVYYCARDYYGSSSWFAYWGQGTLVTVSA
VL: DIVMTQSQRFMSTSVGDRVSVTCKASQNVGTNVAWYQQKPGQSPKALIYSASYRYSGVPDRFTGSGSGTDFTLTISNVQSEDLAEYFCQQYNSYPYMYTFGGGTKLEIKR
notes: rodent hybridoma mAb
On to B4, for which the Kd was 0.35 nM in test [1]; 120 nM in test [2]; 35 nM with rat ALK, purified (rALK); 69 nM in test [3].

B5: Ab328 (antibody, V domains shown)
VH: QVQLQQSGAELAKPGASVKLSCKASGYTFTSYWMHWVKQRPGQGLEWIGYINPSSGYTKYNQKFKDKATLTADKSSSTAYMQLSSLTFEDSAVYYCARDYYGSSSWFAYWGQGTLVTVSA
VL: DIVMTQSQKFMSTSVGDRVSVTCKASQNVGTNVAWYQQKPGHSPKALIYSASYRYSGVPDRFTGSGSGTDFTLTISNVQSEDLAEYFCQRYNSYPYMFTFGGGTKLEIKR
notes: rodent hybridoma mAb
On to B5, for which the Kd in test [1] was determined as 0.5 nM.

B6: Ab322 (antibody, V domains shown)
VH: QVQLQQSGAELAKPGASVKLSCKASGYTFTNYWMHWVKQRPGQGLEWIGYINPSSGYTKYNQKFKDKATLTADKSSSTAYMQLSSLTYEDSAVYYCARDYYGSSSWFAYWGQGTLVTVSA
VL: DIVMTQSQRFMSTSVGDRVSVTCKASQNVGTNVAWYQQKPGQSPKALIYSASYRYSGVPDRFTGSGSGTDFTLTVSNVQSEDLAEYFCQQYNSYPYMYTFGGGTKLEIKR
notes: rodent hybridoma mAb
For B6, the binding result in test [4] is recorded as “no binding”. In addition, the affinity in test [1], expressed as Kd, was 0.5 nM.

B7: Ab329 (antibody, V domains shown)
VH: QVQLKESGPGLVKPSATLSLTCTVSGFSLTSYHVCWIRQTPGKGLEWMGVIWGDGRTTYNPPLKSRLSISRDTSKSQVFLKMSSLKTEDTATYYCARATMTGHGDAWGQGASVTVSS
VL: DIQMTQSPASLSASLEEIVTITCQASQDIDNYLSWYQQKPGKSPHLLIHSATSLADGVPSRFSGGRSGTQFSLKINRLQVEDTGIYYCLQHYSGWTFGGGTKLELKR
notes: rodent hybridoma mAb
In test [1], B7 showed a Kd of 0.34 nM.

B8: Ab352 (antibody, V domains shown)
VH: EVQLVQSGPEVKKPGTSVKLSCKASGYTFTSYWMHWVRQARGQRLEWIGYIKPSSGYTKYNQKFKDRATLTADKSTSTAYMELSSLRSEDTAVYYCARDYYGSSSWFAYWGQGTLVTVSS
VL: EIVMTQSPAFLSVTPGEKVTITCKASQNVGTNVAWYQQKPDQAPKALIYSASYRYSGVPSRFSGSGSGTDFTLTISSLEAEDAATYYCQQYNSYPYMYTFGQGTKLEIK
notes: humanized
In the case of B8, the Kd in test [2] is 205 nM; with rat ALK, purified (rALK) it was 24 nM; in test [3], 105 nM; in test [5], 77.2 nM.

B9: Ab400 (antibody, V domains shown)
VH: EVQLVQSGPEVKKPGTSVKLSCKASGYTFTSYWMHWVRQARGQRLEWIGYIKPSSGYTKYNQKFKDRATLTADKSTSTAYMELSSLRSEDTAVYYCARDYYGSSSWFAYWGQGTLVTVSS
VL: EIVMTQSQATMSTSVGERATLSCKASQNVGTNVAWYQQKPGQSPKALIYSASYRYSGVPARFSGSGSGTDFTLTISSVEPEDFAVYYCQQYNSYPYMYTFGQGTKLEIK
notes: humanized
Consider B9, for which the Kd with rat ALK, purified (rALK) is 18 nM.

B10: Ab402 (antibody, V domains shown)
VH: EVQLVQSGAEVKKPGTSVKLSCKASGYTFTSYWMHWVRQARGQRLEWIGYIKPSSGYTKYAQKFQERVTLTADKSTSTAYMELSSLRSEDTAVYYCARDYYGSSSWFAYWGQGTLVTVSS
VL: EIVMTQSQATMSTSVGERATLSCKASQNVGTNVAWYQQKPGQSPKALIYSASYRYSGVPARFSGSGSGTDFTLTISSVEPEDFAVYYCQQYNSYPYMYTFGQGTKLEIK
notes: humanized
For B10, the Kd with rat ALK, purified (rALK) is 24 nM.

B11: Ab403 (antibody, V domains shown)
VH: QVQLVQSGAEVAKPGASVKLSCKASGYTFTSYWMHWVKQAPGQGLEWIGYIKPSSGYTKYNQKFKDKATLTADKSTSTAYMELRSLRSDDTAVYYCARDYYGSSSWFAYWGQGTLVTVSS
VL: EIVMTQSQATMSTSVGERATLSCKASQNVGTNVAWYQQKPGQSPKALIYSASYRYSGVPARFSGSGSGTDFTLTISSVEPEDFAVYYCQQYNSYPYMYTFGQGTKLEIK
notes: humanized
Consider B11, for which the Kd with rat ALK, purified (rALK) is 22 nM.

B12: Ab355 (antibody, V domains shown)
VH: QVQLVQSGAEVAKPGASVKLSCKASGYTFTSYWMHWVKQAPGQGLEWIGYIKPSSGYTKYNQKFKDKATLTADKSTSTAYMELRSLRSDDTAVYYCARDYYGSSSWFAYWGQGTLVTVSS
VL: EIVMTQSPAFLSVTPGEKVTITCKASQNVGTNVAWYQQKPDQAPKALIYSASYRYSGVPSRFSGSGSGTDFTLTISSLEAEDAATYYCQQYNSYPYMYTFGQGTKLEIK
notes: humanized
Turning to B12, the Kd in test [2] is 150 nM; in the test with rat ALK, purified (rALK), 31 nM; in test [3], 103 nM; in test [5] it was 86.5 nM.

B13: Ab332 (antibody, V domains shown)
VH: EVQLQQSGPELVKPGTSVKISCKASGYTFTDYYMNWMKQSHGKSLEWIGDINPNNGVTSYNQKFKGKATLTVDKSSSTAYMELRSLTSEDSAVYYCAREDYGSNYFDYWGQGTTLTVSS
VL: DIVLTQSPASLAVSLGQRATISCKASQSVDYDGDSYMNWYQQKPGQPPKLLIYAASNLESGIPARLSGSGSGTDFTLNIHPVEEEDAATYYCQQSNEDPPTFGGGTKLEIRR
notes: rodent hybridoma mAb
With B13, the dissociation constant Kd in test [1] was 1.55 nM.

B14: Ab320 (antibody, V domains shown)
VH: QVQLQQSGAELVKPGASVKISCKASGYAFSSYWMNWVKQRPGKGLEWIGQIYPGDGDTNYNGKFKGKATLTADKSSSTAYMQLSSLTSEDSAVYFCASYYYGSKAYWGQGTLVTVSA
VL: DIQMTQSPASLAASVGETVTITCRASENIYYSLAWYQQKQGKSPQLLIYNANSLEDGVPSRFSGSGSGTQYSMKINSMQPEDTATYFCKQAYDVPFTFGSGTKLEIKR
notes: rodent hybridoma mAb
For B14, in test [1], binding was put at a Kd of 0.35 nM.

B15: Ab330 (antibody, V domains shown)
VH: EVQVVETGGGVVQPGKSLEITCATSGLTFSTAWMYWVRQSSDRRLEWIARIKDKSNKFASDYVESVRGRFTISRDDSRSSVYLQMNNLKEEDTATYYCTTSYGYAWGQGVMVTVSS
VL: DIQMTQSPSSMSASLGDRVTITCQASQDIGNYLIWFQQKPGKSPRPLIYYATNLANGVPSRFSGSRSGSEYSLTITSLESEDMADYHCLQYKQHLTFGSGTKLEIER
notes: rodent hybridoma mAb
Consider B15, for which the Kd in test [1] was 3.13 nM.

B16: Ab331 (antibody, V domains shown)
VH: EVQVVETGGGVVQPGKSLEITCATSGLTFSTAWMYWVRQSSDRRLEWIARIKDKSNNFASDYVESVRGRFTISRDDSRSSVYLQMNNLKEEDTATYYCTTSYGYAWGQGVMVTVSS
VL: DIQMTQSPSSMSASLGDRITITCQASQDIGNYLIWFQQKPGKSPRPLIYYATNLANGVPSRFSGSRSGSEYSLTITSLESEDMADYHCLQYKQHLTFGSGTKLEIER
notes: rodent hybridoma mAb
Regarding B16, the binding result in test [4] is given as “no binding”. In addition, the Kd in test [1] turned out to be 2.5 nM.

The values are drawn from US20200157236A1 (CELLDEX THERAPEUTICS, published 2020).
